Biological target: SRC SH3 domain (GST-SH3(SRC)) 83-139 (Gallus gallus, UniProt P00523)
Assay: fluorescence polarization competition

Binder	Kd [µM]
RAARPLPPLPP [AGT(PP3) fusion]	7
VSLARRPLPPLPRL [AGT(PP2) fusion]	0.55
